For assay [1], the target named is splitGFP(1-10). In words: cell-based or functional assay.
The target of assay [2] is splitGFP(1-10). As to the kind of experiment: in vitro splitGFP complementation, fluorescence; reference pAbBD-S11.

Regarding Ritux-(pAbBD-S11)2 (antibody), in assay [1], the fold-increase in median splitGFP fluorescence, flow cytometry 6 hours after electroporation into HEK293T splitGFP(1-10) cells is 39.4 fold. The fluorescence relative to pAbBD-S11 in assay [2] turned out to be 2 fold. pAbBD-S11 registered a fold-increase in median splitGFP fluorescence, flow cytometry 6 hours after electroporation into HEK293T splitGFP(1-10) cells in assay [1] of 33.5 fold.

(Values after patent US20230031853A1.)
